Test system: MS2 coat protein
Assay: apparent KD of MS2 coat protein; higher = weaker reporter binding
Details: Eterna round: R107
Outline: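 Designed RNA switches were transcribed on-chip from Illumina sequencing clusters and titrated with SNAP-549-labelled MS2 coat protein in twofold steps from 0.7 or 1.5 nM up to 3 µM. Each step lasted 0.8–1.5 h at first and 10–20 min by the end, in 100 mM Tris-HCl pH 7.5, 80 mM KCl and 4 mM MgCl2, without or with constant ligand. Apparent KD is the median, for each design, of fits to normalised cluster binding curves.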

[1] = input ligand: theophylline 20 uM
[2] = input ligand: tryptophan 2.4 mM
[3] = input ligand: theophylline 2 mM

| Sequence | apparent KD of MS2 coat protein (input ligand: arginine 13.2 mM) [nM] | apparent KD of MS2 coat protein [1] [nM] | apparent KD of MS2 coat protein [2] [nM] | apparent KD of MS2 coat protein [3] [nM] | apparent KD of MS2 coat protein (input ligand: none) [nM] |
| --- | --- | --- | --- | --- | --- |
| AGCGACAUGCGUGAUACCAGCUACAUGAGGAUCACCCAUGUACGUAGGAAACUACUGUGUAGCCCUUGGCAGCAUAGUGCAUGUC [Exclusion - Theophylline B (Freestyle 21)] | 14.6 | 20 | 13.5 |  |  |
| UGGUACUAGGCGGCCGCCACUGGGAGAUACAUGAGGAUCACCCAUGUUUAAUGCCGAGAGGCAACUAGGACCGGGCCUAGUACAU | 63.6 | 133 |  | 127 |  |
| AAUUUAAACGGAAGGAGCGUCACUUAAUAUCAACAUGAGGAUCACCCAUGUAAGGGUUGUAGACAGGUAGGUCGCCGUCAUUUGA [JR_AAArginiB_Sub023] | 36.3 | 50.6 | 35.4 | 41.9 | 39.2 |
| ACACAAUACAUGAGGAUCACCCAUGUAAAACGAGGACCGGUACGGCCGCCACUCGAAUACAGGAAACCUCGGAAUAUUAAGUGAA [JR_ExcTryptA_Sub001] | 26.9 | 64.1 |  | 95.8 |  |
| AUGCAUAUCAGAAGGAGCGUCAUUAACAUGAGGAUCACCCAUGUAACAUUGAAUUCGAUGAGACAGGUAGGUCGCUGAAUAGUAA [SS-ArgB26] | 26.6 | 44.9 | 31.1 | 37.9 | 35.6 |
| GAACAUAAGGAUAGUAUAAUAACUACAGAAGGAGCGUCAGGAAGGACAGGUAGGUCGCUGGAAGACAUGAGGAUCACCCAUGUUU [#03 Same State - Arginine A] | 20.6 | 28.8 | 17.1 | 21.1 | 21.4 |
| AACAUGAGGGCGGCCGCCACUCCAUGAACAUGAGGAUCACCCAUGUUGAGGAUCACCCAUGUUGUGAGGACCGGGCCACAUGAGG [Exclusion Tryptophan B 3] | 31.7 | 66.1 | 89.6 | 59.8 | 38 |
| GCAUUAUUAUUAGAUACCAGUGUCGCAGGCGACAUGAGGAUCACCCAUGUAAAGUUACUCCACCCUUGGCAGCUAGUUCGACUAC [theeternabot_sameState_MS2_Theo_B_21] | 56 | 124 | 101 |  |  |
| AACAUGAGGAUCACCCAUGUGUCCUCGAAACGAGGACCGGUACGGCCGCCACUCGAAAUAAGCUGUUGACGAAAAGUCAGCAGCA [Mat - Exclusion - Trytophan A - D20] | 128 | 300 |  | 345 |  |
| UGUAUGUGAUUUGAUACCAGAUCAGCUGGUUAUACAUGAGGAUCACCCAUGUUACUUUGGGUCCCUUGGCAGCAAAUCGCAUACU [SSTheo B #26] | 165 | 355 | 535 |  |  |
| CUCCUGUGAGCGGCCGCCACUGGAGGCCUCGCGCGACAUGAGGAUCACCCAUGUUGGCCCGGCCUCAGGACCGGGUUCGCGCGAG [Same State - Tryptophan B Attempt #4 (HarryS)] | 7.89 | 15.4 | 10.9 | 10.7 | 11.1 |
| UACAUAUGCCGAAGGAGCGCGAGAAGCAAAGCUUCAUUCCUCACAUGAGGAUCACCCAUGUCGCAGGUAGGUCGCGGCAUAUGUU [#15 Exclusion - Arginine B] | 23.7 | 42 | 24 | 28.2 | 21.8 |
| GGUAUUGGAACAGAUACCAGUAUCUGUUGAUCCUACAUGAGGAUCACCCAUGUUAGAAAGUACCCUUGGCAGCUGUAAUAAUGCC [Theo B Ex t1] | 52.7 | 76.6 | 49.4 |  |  |
| UGGUGUAGGGUAAAUAGGCUGAGUACAGAAGGAGCGCGAAUAAACGCAGGUAGGUCGCUGGACACAUGAGGAUCACCCAUGUUGA [Same State Arginine A GF 29] | 10.8 | 31.9 | 21.2 | 27.3 | 20.5 |
| GGACUAACCAGAAGGAGCGACGCAAGCAGAAACUGCAAUCCUCCGCACGAGGAUCACCCGUGUCAGGUAGGUCGCUGGUUAGUCG [ArgBX 28] | 21.6 | 38.4 | 29.2 | 30.1 | 28.2 |
| AAACAUGAGGAUCACCCAUGUAUACUUAGACGAGGACCGGUACGGCCGCCACUCGAACUUCAAGAUUUGGCGGAUAAUGUAUGUA [JR_Nu22_ExcTryptoA_Sub023] | 9.74 | 16.1 | 11.9 | 11.9 | 10.9 |
| CUCCUGGGAGCGGCCGCCACUGGAGGCCUUGCGCGACAUGAGGAUCACCCAUGUUGGCCCGGCCUCAGGACCGGGUUCGCGCGAG [Same State - Tryptophan B Attempt #2] | 12.3 | 12.3 | 10.1 | 9.73 | 11.3 |
| AGCUCGCAAUCCUCAGCGUCAAAGACGCGUCGAGGACCGGUACGGCCGCCACUCGACAAGAGGAUCACCCUUGUCUAAGCGAGCA [TrypAX 5 #SwitchBubble #AlternativeMS2 #MS2Late #CuTurnoff] | 78.5 | 355 | 114 | 588 |  |
| AAUCGGACUCGUACAGCAUGUUGAGCGGAAGGAGCGGCGAAAGAGCCAGGUAGGUCGCCGCCGACAUGAGGAUCACCCAUGUACG [Orenti] | 27.3 | 177 | 110 | 258 | 119 |

| Sequence | apparent KD of MS2 coat protein (input ligand: arginine 13.2 mM) [nM] | apparent KD of MS2 coat protein [1] [nM] | apparent KD of MS2 coat protein [2] [nM] | apparent KD of MS2 coat protein [3] [nM] | apparent KD of MS2 coat protein (input ligand: none) [nM] |
| --- | --- | --- | --- | --- | --- |
| AGCGUGCAUCGGAAAACGAUGUACGCAAAUCGAGGACCGGUACGGCCGCCACUCGUCCUCAACAUGAGGAUCACCCAUGUAAUAA [Mat - Exclusion - Trytophan A - D10] | 22 | 24.8 |  | 24 |  |
| GCGGACAUGAGGAUCACCCAUGUAAAUCCUCGAGGACCGGUACGGCCGCCACUCGAACGAGUGGCACGCGAGUGCGCACUCGCGU [aDa] | 21.8 | 38.4 |  | 29.7 |  |
| CCAUGCAGGUCGGCCGCCACUACACACAUGAGGAUCACCCAUGUAGUUACUGGGUGAAGUGGCAGUAGGACCGGGACCUGCACAU [Brourdmod19] | 94.7 | 326 |  | 541 |  |
| CCUGCGUUUCUUUUCUUUCGCAGGAAUGAUACCAGUAGGGAAACCUACCCUUGGCAGCAUGGGACAUGAGGAUCACCCAUGUUUU [SSThA NP+V+V2 #4] | 117 | 202 | 181 |  |  |
| CUCCUGGGAGCGGCCGCCACUGGAGGCCUCGCGCGACAUGAGGAUCACCCAUGUUGGCCCGGCCUCAGGACCGGGUUCGCGCGAG [Same State - Tryptophan B Attempt #3] | 8.01 | 17.9 | 10 | 10.6 | 12.9 |
| GGCAAGCGAGACAUGAGGAUCACCCAUGUUCGAGGACCGGUACGGCCGCCACUCGGUGGACUCAUGGUAAAGCCGGUGAGCCAAA [AK 1 SS Trypt (A)] | 27.4 | 44.8 |  | 38 |  |
| AAUAGCUUGAGGAUCACCCAAGUAAAAGAUACCAGAGUGAUGAUCCUCCCUUGGCAGCUUAACGCUGAUUGAUUACAAUCAGCGA | 46.5 | 93.9 | 35.1 | 106 | 33.8 |
| GGUCAGCAGUCGGCCGCCACUAGUAUACAUGAGGAUCACCCAUGUCCCUUGCGCCUCACCGAUUUUAGGACCGGGACACUGCCUG [theeternabot_exclusion_MS2_Trp_B_9] | 25.1 | 42 |  | 40.2 |  |
| UUAUAAGCACCUGAUACCAGUAUGAACCCGUACAUGAGGAUCACCCAUGUUAAUUUCUAUUACCCUUGGCAGCAGCCUUUUUCCU [theeternabot_sameState_MS2_Theo_B_2] | 18.7 | 28.8 | 21.7 |  |  |
| UAAUAAGUACCGGUCCUCAGAUCCUCAUGUCGAGGACCGGUACGGCCGCCACUCGAAACAUGAGGAUCACCCAUGUAAUAAUAAU [#06 Exclusion Tryptophan A] | 24.5 | 52.6 |  | 44.3 |  |
| AAAAUAAAGGCGGCCGCCACUAGAGUUAGGCUUAUGUACUGGGUAACAUGAGGAUCACCCAUGUAUAGGACCGGGCCAUAAUAAA [Same State - Tryptophan B (Freestyle 2)] | 28 | 82.1 | 66.5 | 73 | 57.3 |
| ACAUGAGGAUCACCCAUGUGUGUAAGUCCUCGAGGACCGGUACGGCCGCCACUCGAACGAGUGAAGCCUGAUACUAAGUAUCAGG [SS Trp A s5] | 99.6 | 20.7 | 18.7 | 14.4 | 15.4 |
| UCUCAAGGCCGCUCGGUGCUCCCUGGUGAUACCAGCCAUAUAUCCGGCCCUUGGCAGCACAUGAGGAUCACCCAUGUAGCAGGCG [Sorimaat] | 18 | 41.6 | 28.1 | 8.54 | 24 |
| ACAUGAGGAUCACCCAUGUAAUAAUCAGAAGGAGCGUGGAAUAACACAGGUAGGUCGCUGAUGUUUUGUUAAAAUUAUUCGUGAA [JR_SSArginiA_Sub002] | 11.7 | 16.9 | 14.3 | 12.9 | 13.5 |
| GAGUUCCUGAGAGAUACCAGUGAAGCCACAUGAGGAUCACCCAUGUCCCUCACUCCGGCCCACCCUUGGCAGCUCGAAAGAUGGA [Exclusion Theophylline B GF 21] | 83.7 | 132 | 141 | 403 | 105 |
| UUUACCGACACAGAUCACUAAAACCUUGAUACCAGUCCCAGUGGCGACCCUUGGCAGCAAUAUACAUGAGGAUCACCCAUGUGCA [theeternabot_exclusion_MS2_Theo_A_1] | 13.7 |  | 13.8 |  |  |
| ACAUGAGGAUCACCCAUGUGAAGCAGGGUACGAGGACCGGUACGGCCGCCACUCGAGCAUUAUAACGAGUGAAUGGCAACGAUGU [whbob_Ex_trypto A_2s16] | 11.7 | 19 | 12.8 | 17.4 | 12.4 |
| AUCUCAUAGAGUGAUACCAGACUACAUGAGGAUCACCCAUGUUAGAUUUAAAUAUCAUUUGUCCCUUGGCAGCACAUUAAGUACA [JR_Nu_SSTheophyB_Sub021] | 14.2 | 14.8 | 12.7 |  |  |
| ACCUACACGGAGACGUGUAGGAGUAAUGAUACCAGCAUGGAGACAUGCCCUUGGCAGCGUUACAUGAGGAUCACCCAUGUAGUGC [ETHA #5] | 10.4 | 14.2 | 12.9 | 12.8 | 10.7 |

From the supplement of paper PMC9170038
